Results reported in article PMC10938628 (Science Advances, 2022).

What was measured:
[1] = biological target: intact CarHC (C-terminal domain of the photoreceptor CarH); test: SEC
[2] = biological target: the molecule itself; test: SEC + other: dynamic light scattering
SEC = biological target: the molecule itself; test: SEC

intact CarHC (C-terminal domain of the photoreceptor CarH) (domain or fragment)
stoichiometry N [1]: 4

B1: CarHCC (Phe161-Leu276 of the photoreceptor CarH; C-terminal Rossmann-fold B12-binding segment of split CarHC) (domain or fragment, UniProt Q53W62 161-276, looked up)
chain: FPPGPPVLVTTPPGERHEIGAMLAAYHLRRKGVPALYLGPDTPLPDLRALARRLGAGTVVLSAVLSEPLRALPDGALKDLAPRVFLGGQGAGPEEARRLGAEYMEDLKGLAEALWL
stoichiometry N [2]: 4

B2: reconstituted split CarHC complex (CarHCN + CarHCC held together by a cobalamin) (complex)
chain 1: PEDLGTGLLEALLRGDLAGAEALFRRGLRFWGPEGVLEHLLLPVLREVGEAWHRGEIGVAEEHLASTFLRARLQELLDLAGFPPGPP
chain 2: B1 chain
stoichiometry N (SEC): 4
